Data on one molecule can be found in patent US20100239570A1.

Experiment [1] concerns the target Abeta1-42 fibrils (UniProt P05067). Put plainly: ELISA, fibrils coated, antibody titrated. In general terms: ELISA stands for enzyme-linked immunosorbent assay.
Experiment [2] deals with synthetic monomeric Abeta1-40 peptide (UniProt P05067). Put plainly: ELISA, peptide coated, antibody titrated.
Experiment [3] addresses synthetic monomeric Abeta1-42 peptide (UniProt P05067). Put plainly: ELISA, peptide coated, antibody titrated.

B1: antibody NI-103 (antibody, V domains shown)
VH: EVQLHQSGPELVKPGASVKISCKTSGYTFTEYTMHWVKQSHGKSLEWIGGVNPYNDNTSYIRKLQGKVTLTVDRSSSTAYMELRSLTSEDSAVYFCARYGGLRPYYFPMDFWGQGTSVTVSS
VL: QVVLSQSPAILSASPGERVTLTCRASSSVNYMHWYQQKPGSSPKAWIYATSNLASGVPDRFSASGSGTSYSLTISRVEAEDAATYYCQQWRTNPPTFGAGTKLELKR
Usually EC50 stands for the midpoint of the concentration-response curve. Higher therefore signals lower potency in that assay. For B1, the EC50 in experiment [1] stood at 0.07 nM; in experiment [2] it was 0.04 nM; in experiment [3], 0.061 nM.
